# Experimental data: PMC9198048, “Ursodeoxycholic acid reduces antitumor immunosuppression by inducing CHIP-mediated TGF-β degradation” (Nature Communications, 2022)
# Molecular target: T1, Flag-TGF-β1WT (UniProt P04202 30-390)
# T1 construct: TGF-β1 expressed from PCMV6-TGF-β1-Flag, constructed from the Origene plasmid PCMV6-TGF-β1-Myc-Flag (MR227339); Origene MR clones are mouse ORF clones as far as I recall; the printed sites T282 and K315 fit the precursor numbering of mouse and human TGF-β1; In cells the protein may be phosphorylated (T282) and ubiquitinated (K315); also called PCMV6-TGF-β1-Flag; source: HEK293T, transfected, in …
# Assay: pull-down; about 1 µg His-CHIP bound to His beads mixed with 1 µg Flag-TGF-β1WT or Flag-TGF-β1T282A, 4 °C overnight, washed three times with cell lysis buffer, immunoblot
# Conditions: both partners purified
# T1 sequence (P04202 30-390): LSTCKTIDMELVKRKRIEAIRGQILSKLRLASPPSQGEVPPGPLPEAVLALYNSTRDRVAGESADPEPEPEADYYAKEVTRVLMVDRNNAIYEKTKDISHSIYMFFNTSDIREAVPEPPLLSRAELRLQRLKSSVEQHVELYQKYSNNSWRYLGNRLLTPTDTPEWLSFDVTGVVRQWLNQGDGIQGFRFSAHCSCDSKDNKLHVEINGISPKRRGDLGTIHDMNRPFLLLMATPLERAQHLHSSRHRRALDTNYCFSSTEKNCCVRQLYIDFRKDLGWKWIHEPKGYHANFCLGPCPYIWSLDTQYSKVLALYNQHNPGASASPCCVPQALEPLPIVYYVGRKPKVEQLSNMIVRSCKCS
binder,measurement,value
"His-CHIP (enzyme, UniProt Q9WUD1 1-304, looked up, also called PCMV6-CHIP-His) MKGKEEKEGGARLGTGGGGSPDKSPSAQELKEQGNRLFVGRKYPEAAACYGRAITRNPLVAVYYTNRALCYLKMQQPEQALADCRRALELDGQSVKAHFFLGQCQLEMESYDEAIANLQRAYSLAKEQRLNFGDDIPSALRIAKKKRWNSIEERRIHQESELHSYLTRLIAAERERELEECQRNHEGHEDDGHIRAQQACIEAKHDKYMADMDELFSQVDEKRKKRDIPDYLCGKISFELMREPCITPSGITYDRKDIEEHLQRVGHFDPVTRSPLTQEQLIPNLAMKEVIDAFISENGWVEDY",binding result,binds
